# The RNAGym collection of RNA variant scans (doi:10.7554/elife.80360)
# B1: CPEB3 Ribozyme (parent)
# chain: GGGGGCCACAGCAGAAGCGUUCACGUCGCGGCCCCUGUCAGAUUCUGGUGAAUCUGCGAAUUCUGCUGU
# Variants of: B1
# Experiment: self-cleavage, relative activity (ratio to wild type); higher = more cleavage; co-transcriptional
row,Variant,self-cleavage
1,A13U G17A,0.102
2,A13U G17U,0.163
3,A13U G19A,0.145
4,A13U G19C,0.133
5,A13U G19U,0.15
6,A13U G25A,0.168
7,A13U G28A,0.134
8,A13U G28C,0.125
9,A13U G30A,0.487
10,A13U G30C,0.393
11,A13U G30U,0.228
12,A13U G31C,0.217
13,A13U G31U,0.402
14,A13U G37C,0.186
15,A13U G37U,0.196
16,A13U G41A,0.263
17,A13U G41C,0.247
18,A13U G47A,0.893
19,A13U G47U,0.881
20,A13U G48C,0.872
21,A13U G48U,0.916
22,A13U G50A,0.776
23,A13U G50C,0.756
24,A13U G50U,0.857

row,Variant,self-cleavage
1,A13U G56A,0.688
2,A13U G56C,0.31
3,A13U G58A,0.758
4,A13U G65A,0.513
5,A13U G65C,0.417
6,A13U G65U,0.419
7,A13U G68A,0.903
8,A13U G68C,0.841
9,A13U G68U,0.886
10,A13U U20C,0.145
11,A13U U20G,0.185
12,A13U U21A,0.785
13,A13U U21C,0.691
14,A13U U21G,0.173
15,A13U U36A,0.121
16,A13U U36G,0.136
17,A13U U38A,0.609
18,A13U U38C,0.704
19,A13U U38G,0.198
20,A13U U43A,0.31
21,A13U U43C,0.678
22,A13U U44C,0.345
23,A13U U44G,0.575
24,A13U U46A,0.942

row,Variant,self-cleavage
1,A13U U46C,0.873
2,A13U U46G,0.905
3,A13U U49C,0.78
4,A13U U53A,0.514
5,A13U U53G,0.398
6,A13U U55A,0.246
7,A13U U55G,0.234
8,A13U U61A,0.456
9,A13U U61C,0.32
10,A13U U61G,0.46
11,A13U U62A,0.438
12,A13U U64A,0.945
13,A13U U64C,0.853
14,A13U U64G,0.969
15,A13U U67A,0.629
16,A13U U67C,0.66
17,A13U U69A,0.89
18,A13U U69C,1
19,A13U U69G,0.961
20,G14A A15C,0.305
21,G14A A16C,0.136
22,G14A A16G,0.463
23,G14A A16U,0.353
24,G14A A23C,0.582

row,Variant,self-cleavage
1,G14A A23G,0.444
2,G14A A40C,0.234
3,G14A A40G,0.495
4,G14A A42C,0.343
5,G14A A51C,0.486
6,G14A A51U,0.75
7,G14A A52C,0.688
8,G14A A52U,0.643
9,G14A A59G,0.704
10,G14A A59U,0.369
11,G14A A60C,0.28
12,G14A A60G,0.358
13,G14A A60U,0.23
14,G14A C18A,0.163
15,G14A C18G,0.208
16,G14A C18U,0.179
17,G14A C22G,0.166
18,G14A C24A,0.238
19,G14A C24U,0.2
20,G14A C27A,0.14
21,G14A C27U,0.134
22,G14A C29U,0.113
23,G14A C32A,0.336
24,G14A C32G,0.212

row,Variant,self-cleavage
1,G14A C33A,0.519
2,G14A C34A,0.419
3,G14A C34G,0.23
4,G14A C35U,0.668
5,G14A C39A,0.22
6,G14A C39G,0.385
7,G14A C39U,0.362
8,G14A C45A,0.612
9,G14A C45G,0.638
10,G14A C45U,0.778
11,G14A C54A,0.239
12,G14A C57A,0.264
13,G14A C57G,0.258
14,G14A C63A,0.829
15,G14A C66A,0.262
16,G14A C66G,0.287
17,G14A C66U,0.375
18,G14A G17U,0.111
19,G14A G19A,0.16
20,G14A G19C,0.106
21,G14A G25A,0.156
22,G14A G25C,0.105
23,G14A G25U,0.0915
24,G14A G28C,0.146

row,Variant,self-cleavage
1,G14A G30A,0.235
2,G14A G31A,0.249
3,G14A G31C,0.183
4,G14A G37A,0.191
5,G14A G41A,0.196
6,G14A G47C,0.827
7,G14A G47U,0.889
8,G14A G48A,0.868
9,G14A G48C,0.836
10,G14A G48U,0.943
11,G14A G50A,0.778
12,G14A G50C,0.61
13,G14A G50U,0.743
14,G14A G56A,0.466
15,G14A G56C,0.261
16,G14A G56U,0.321
17,G14A G58A,0.703
18,G14A G58C,0.674
19,G14A G58U,0.895
20,G14A G65C,0.311
21,G14A G65U,0.3
22,G14A G68C,0.756
23,G14A U20A,0.132
24,G14A U20G,0.124

row,Variant,self-cleavage
1,G14A U26A,0.346
2,G14A U36A,0.0973
3,G14A U36C,0.442
4,G14A U38A,0.478
5,G14A U43A,0.306
6,G14A U43C,0.624
7,G14A U43G,0.23
8,G14A U44A,0.538
9,G14A U44C,0.363
10,G14A U44G,0.64
11,G14A U46C,0.709
12,G14A U46G,0.844
13,G14A U49C,0.646
14,G14A U53C,0.273
15,G14A U55C,0.281
16,G14A U55G,0.172
17,G14A U61A,0.357
18,G14A U62A,0.554
19,G14A U62C,0.338
20,G14A U62G,0.605
21,G14A U64C,0.346
22,G14A U64G,0.576
23,G14A U67A,0.635
